Source: the RNAGym collection of RNA variant scans (doi:10.1073/pnas.2313332121)

B1: TPR t1 (parent)
chain: GACCAAUCUGCCCUCAGAGCUCGAGAACAUCUUCGGAUGCAGAGGAGGCAGGCUUCGGUGGCGCGAUAGCGCCAACGUCCUCAACCUCCAAUGCAUCCCACCACAUGAUGAUGCCUGAAGAGCCUUGGUUUUUUG

Variants of: B1
Assay: polymerase ribozyme fitness, log enrichment relative to wild type (log ratio); higher = more active; in vitro selection for triplet polymerase activity
Outline: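 One round of in vitro selection, in triplicate, was applied to PCR-built, transcribed mutant libraries of each subunit of a heterodimeric triplet polymerase ribozyme. The steps were annealing with a biotinylated primer, partner subunit and triplets, incubation frozen at −7 °C, gel excision of extended constructs, streptavidin-bead capture and RT-PCR. Fitness is the logarithm, base 2, of genotype enrichment over wild-type enrichment from inverse-variance-weighted replicate averages of Illumina-sequenced inputs and outputs, keeping genotypes with ≥10 input reads and ≥1 read per output.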

Row | Variant | polymerase ribozyme fitness (log ratio)
1 | G61C A75G U81G | -4.25
2 | A46U G61C C79U | -1.59
3 | U78C C124U | 1.72
4 | G61U C89G A91U C124U | -0.422
5 | C15A G45U G61U A84U C123U | -2.78
6 | C8G G47A U130C | 0.26
7 | A24C C73G A83U C114G | -6.1
8 | U14G C62U | -1.97
9 | C115G U133G | -0.9
10 | U9C C11A A18C C53G C80G C99A G110U | -6.83
11 | G44U A46U | -1.83
12 | C124G U131G | 1.33
13 | C8U C64A | -6.53
14 | C11A C13U G60C A100C U132C | -2.62
15 | C86G A103G | -5.43
16 | G10U C34U G44C U112C | -5
17 | G36C U126G | -3.08
18 | C73A G93A | -1.04
19 | G19U G71C A121U | -2.34
20 | G19U G48C C123U | -5.25
21 | C56U C115A | 0.248
22 | A27G G45A G58A G61A A91G | -5.18
23 | U55G A90C U92G C101A | -3.67
24 | G42U U59C U87A A100U | -4.01

Row | Variant | polymerase ribozyme fitness (log ratio)
25 | G63C C104A | -1.86
26 | C15U G60A A91C | -2.6
27 | A16G C97G U116C | -2.75
28 | A16U A46C C94U G120C | -0.971
29 | C8U U55G G77U G113C | -1.83
30 | C8A G77U C82A | 0.031
31 | U59G U78C C115U U130C | -1.13
32 | C49U G57A U96A | -3.31
33 | G39A G60A | -0.734
34 | U14A G42C G110C | -5.7
35 | U7G A41G A74U U106A U130C | 0.791
36 | A46U U112A C123A | -1.26
37 | A27C C124U | -1.18
38 | C4A A41G U106A | -1.87
39 | A91U G113U | -3.5
40 | C4U G52U G128U | -2.66
41 | C53U U131G | -0.948
42 | C3G A27G C53U C72G C79A C98G U116C | -6.51
43 | U14G A121C | 0.71
44 | C20A A27G C40G U55C G71C G113A | -3.84
45 | A6U C62U | 0.19
46 | A41G A105U | -3.3
47 | C15G C85G U96A C114A G117C | -3.58
48 | G71C C82G U109A C115A A118U C123A | -6.35

Row | Variant | polymerase ribozyme fitness (log ratio)
49 | A26U C31G A43G C89A A121U | -7.24
50 | G48U C97G | -4.5
51 | C3U C86G | -2.21
52 | G52A C79U | -0.581
53 | C13U G42U G71U U87A G120C | -1.77
54 | C72G U78G U116A | -3.97
55 | G71A U78C C123U U131A | -0.879
56 | U32C G57U | -0.164
57 | A74G G77U C98U C104A | -2.74
58 | A6U A105C U116C | -6.02
59 | A26U G60C C86G | -4.99
60 | U32C | 0.135
61 | G61C C64A C94G G113C C124A | -6.83
62 | C3U G44U G45U G63U C88A | -2.78
63 | G19A C22G A43C G71A C89A U125A | -6.8
64 | A29U C56A | -2.25
65 | C72A C115A G135A | -0.346
66 | C20A G42C | -4.12
67 | C12U A37C A46U | -1.38
68 | C13A A27C | -3.81
69 | G36A G42A U54G | -3.13
70 | G69A A83U | -3.05
71 | C11A A84G | -2.26
72 | C70U C123A | -0.0908

Row | Variant | polymerase ribozyme fitness (log ratio)
73 | A46G G69A G110A | -4.77
74 | C53A C115U | -0.961
75 | C8A C62A | -0.709
76 | G42A G61A | -1.27
77 | G10A C70U | -0.224
78 | C4A C72G | -1.81
79 | U9A C12A C124U | 2.01
80 | G42C G44U U112A | -1.44
81 | C4U C15U A18G G113A | -3.08
82 | C13U G63C C76A U78A | -6.73
83 | G47A C82G | -1.3
84 | G45U G58A C86U A95C | -3.29
85 | A66C C86U C114G U129G | -4.68
86 | U87A | 0.0155
87 | C40U A74G C79G | -2.36
88 | A83C C114U | -1.78
89 | A37U C62A U92C | -2.86
90 | A2G G61A C102U U109A | -5.41
91 | A43U C56G U67A G69U G71C A75G C101A G107C C124G | -7.81
92 | C40U C53U U78C U92A G93A A111C | -4.45
93 | A29G C40A C97U G113C | -4.13
94 | A16U A37U C56G | -3.71
95 | A5U C72U G113U G120U U130C | -4.48
96 | U78C C114U | -2.28

Row | Variant | polymerase ribozyme fitness (log ratio)
97 | G35A G52U | -3.5
98 | C12U G17C | -3.21
99 | A5U A91U | -3.29
100 | C15G U109A G120U C123A | -6.64
101 | G47U C124G | 0.196
102 | C28U C53G G58C G60C | -3.2
103 | A41U G128A | -2.79
104 | U55C G57U A66C C123G | -0.734
105 | A46U G47A C72U A121G U130C | 0.526
106 | A27G A43U G47A C98U | -5.67
107 | C15U C20U G42A A43C G113A | -1.99
108 | A37G C56U A100U C102A U116A | -6.14
109 | A83C A91G A111G | -1.85
110 | C13A G19A G113U | -3.81
111 | A5U A27G G44U A118U | -4.64
112 | C22U C72A C79A | -5.61
113 | G51U U55A C64U C114G C115U C123U | -7.28
114 | U55C G113U | -3.3
115 | G61C C80G | -4.64
116 | A90U C104A G113C | -3.66
117 | A6U G48U G71C G117A | -3.59
118 | G35U A74G | -5.03
119 | G45A A100U | -2.26
120 | A29G C72A G113A G128A | -2.62

Row | Variant | polymerase ribozyme fitness (log ratio)
121 | A5C G60U | -1.18
122 | G45U G47C G52A A83U C124U | -3.57
123 | A41C U55A G61U C102U | -3.48
124 | A37U C72A U106A G135U | -0.59
125 | G44U A84G G120C U130G | -2.91
126 | A5C C13U C79A C114A | -2.82
127 | G44A G63A G122A | -2.73
128 | C13U U14A C15G G63A U81G U109A | -7.58
129 | G45A G69U U112A | 1.62
130 | U9C G35U C101A | -5.93
131 | C13U C15U A27C A29G C73U | -4.69
132 | U7C U14A A46U C64U | -2.69
133 | C89G C98U | -1.55
134 | C101A U106C U133A | -0.867
135 | C22G A83U C89G A121G | -3.33
136 | U54A C86U C97U C101G | -2
137 | U21A C34A A37G C98G | -2.68
138 | A46U G48A G52C G61U G120A | -0.93
139 | A46U C49G C70U A84C | -2.21
140 | G17U U87G | -2.25
141 | U30A A95G A121U | -3.78
142 | C11U C73U | -0.94
143 | C70G U109G | -6.4
144 | C104U G127C | -1.03

Row | Variant | polymerase ribozyme fitness (log ratio)
145 | A83G G120U G122U | -0.467
146 | G36A A46U G60C C124U | -0.384
147 | G42U C72G | -2.53
148 | A2G U7C G10U G52C | -1.99
149 | G48C A111C | -0.761
150 | G44U C62G C79U A90G | -1.45
151 | C97U C101U C102A | -4.12
152 | A18C U54G U87G A121U | -0.603
153 | G110U G127U | -1.57
154 | C34G G61A G120A | -5.72
155 | C12G G45A A84C U106G | -1.76
156 | G45A C85U | -1.45
157 | C31U C89U | -5.93
158 | G48C C49A C56U U87A U96A G120C | -2.17
159 | C40U C56U U78C C89G | -2.2
160 | C34A U54G C56A | -4.3
161 | A6C U7G A29G G48C A95C | -3.37
162 | C73U U87A A91U U112A U116G | -4.55
163 | C13A G60A U131A | -2.5
164 | U7C C20G | -4.91
165 | A50U C82U | -1.15
166 | C11U G110U | -1.5
167 | U9C C72U C102A | -1.5
